Test results taken from patent US10294487B2, “Methods and compositions involving ALS variants with native substrate preference” (E I DU PONT DE NEMOURS AND COMPANY, priority 2012, dated 2019).

How the values were obtained:
G. max ALS1 protein [1] = experiment: Colorimetric ALS kinetic assay (Km, kcat) with pyruvate as substrate; type: biochemical, Glycine max
How it was run: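 Recombinant soybean ALS variants, mature N-terminus from S48, His-MBP tag cleaved off; 0.8 ug enzyme per well in 25 mM potassium phosphate, 15 mM MgCl2, 0.7 mM TPP, 28 uM FAD, 0.2 mg/ml BSA, 0-100 mM pyruvate. Km and Vmax from hyperbolic fit; kcat from Vmax and protein concentration.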

G. max ALS1 protein [2] = experiment: Substrate specificity ratio (Rf), pyruvate versus 2-ketobutyrate, LC-MS of reduced products; type: biochemical, Glycine max; conditions: ratio of [pyruvate] to [2-ketobutyrate] giving equal rates of acetolactate and acetohydroxybutyrate formation, 25 mM pyruvate
How it was run: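 Pyruvate was held at 25 mM while 2-ketobutyrate was varied. Reactions were quenched with sodium borohydride, and the reduced acetolactate and acetohydroxybutyrate were separated on C18 with a methanol gradient and quantified by MS integration. Rf is the [pyruvate]/[2-ketobutyrate] ratio that gives equal formation rates of both products.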

[3] = tested on: soybean embryogenic suspension tissue; experiment: Chlorsulfuron selectable marker activity in soybean transformation; type: cell-based; conditions: chlorsulfuron selection 50 then 100 ppb; SAMS (low) or UBQ10 (high) expression promoter as in label
Text: Soybean plants expressing ALS variant transgenes were produced using the method of particle gun bombardment (Klein et al. (1987) Nature 327:70-73, U.S. Pat. No. 4,945,050) using a DuPont BIOLISTIC® PDS1000/He instrument. The vectors used to test modified ALS genes as selectable markers in soybean transformation were composed of the S-adenosylmethionine synthase (SAMS) promoter (U.S. Pat. No. 7,741,537) from soybean, or the polyubiquitin 10 (AT-UBQ10) promoter (DuPont) from Arabidopsis, driving the modified ALS coding sequence followed by the native soybean ALS terminator region. The selection agent used during the transformation process was chlorsulfuron. Bombardments were carried out with linear DNA fragments purified away from any bacterial vector DNA. Bombarded soybean embryogenic suspension tissue was cultured for one week in the absence of chlorsulfuron, and then placed in liquid selection medium for 6 weeks. Selection in liquid cultures was at 50 parts per billion (ppb) chlorsulfuron for three weeks, then elevated to 100 ppb. Putative transgenic suspension tissue was sampled for PCR analysis to confirm the presence of the modified ALS gene. Putative transgenic suspension culture tissue was maintained in selection medium for 3 weeks to obtain enough tissue for plant regeneration. […]

B1: GM-ALS1: Glycine Max ALS1 protein, wild type (protein)
chain: MAATASRTTRFSSSSSHPTFPKRITRSTLPLSHQTLTKPNHALKIKCSISKPPTAAPFTKEAPTTEPFVSRFASGEPRKGADILVEALERQGVTTVFAYPGGASMEIHQALTRSAAIRNVLPRHEQGGVFAAEGYARSSGLPGVCIATSGPGATNLVSGLADALMDSVPVVAITGQVPRRMIGTDAFQETPIVEVSRSITKHNYLILDVDDIPRVVAEAFFVATSGRPGPVLIDIPKDVQQQLAVPNWDEPVNLPGYLARLPRPPAEAQLEHIVRLIMEAQKPVLYVGGGSLNSSAELRRFVELTGIPVASTLMGLGTFPIGDEYSLQMLGMHGTVYANYAVDNSDLLLAFGVRFDDRVTGKLEAFASRAKIVHIDIDSAEIGKNKQAHVSVCADLKLALKGINMILEEKGVEGKFDLGGWREEINVQKHKFPLGYKTFQDAISPQHAIEVLDELTNGDAIVSTGVGQHQMWAAQFYKYKRPRQWLTSGGLGAMGFGLPAAIGAAVANPGAVVVDIDGDGSFIMNVQELATIRVENLPVKILLLNNQHLGMVVQWEDRFYKSNRAHTYLGDPSSESEIFPNMLKFADACGIPAARVTKKEELRAAIQRMLDTPGPYLLDVIVPHQEHVLPMIPSNGSFKDVITEGDGRTRY
modifications: GLYCINE MAX
notes: Glycine Max ALS1 protein, wild type
Km (G. max ALS1 protein [1]): 3000 µM
kcat (G. max ALS1 protein [1]): 0.933 s⁻¹
Substrate specificity ratio (Rf) (G. max ALS1 protein [2]): 114.0
Substrate specificity ratio (Rf) (G. max ALS1 protein [2]; listed as Glycine max ALS1): ~114
Substrate specificity ratio (Rf) (G. max ALS1 protein [2]; listed as wild type enzyme): ~114
Selectable Marker Activity [3]: not able to act as a selection marker
